In patent US20090149339A1 (published 2009):
Ends that are not written are not given here. * marks the point of attachment. Biotin = O=C1N[C@H]2[C@H](CS[C@H]2CCCCC(=O)*)N1

Tests used:
Assay in all cases: A/G assays
[1] = molecular target: GST-LIMK2 PDZ domain fusion protein (human LIM domain kinase 2 AA185-275; PDZ domain 1 of 1) (human, UniProt P08515 1-218 = GST)
[2] = molecular target: T1, GST-41.8 kD PDZ domain fusion protein (hypothetical 41.8 kD protein AA4-85; PDZ domain 1 of 1) (UniProt P08515 1-218 = GST)
T1 construct: also called hypoth

[3] = molecular target: GST-NOS1 PDZ domain fusion protein (human neuronal nitric oxide synthase; PDZ domain 1 of 1) (human, UniProt P08515 1-218 = GST)
[4] = molecular target: T2, GST-KIAA0303 PDZ domain fusion protein (KIAA0303 AA652-742; PDZ domain 1 of 1) (UniProt P08515 1-218 = GST)
T2 construct: also called K303

[5] = molecular target: T3, GST-CASK PDZ domain fusion protein (CASK AA495-584; PDZ domain 1 of 1) (mouse, UniProt P08515 1-218 = GST)
T3 construct: also called mCASK

[6] = molecular target: T4, GST-NeDLG PDZ domain fusion protein (presynaptic protein sao102, neuroendocrine-dlg; PDZ domains 1-2 of 3) (UniProt P08515 1-218 = GST)
T4 construct: also called NeDLG1

[7] = molecular target: GST-PSD95 PDZ domain fusion protein (human post-synaptic density protein 95 AA387-724; PDZ domains 1-3 of 3) (human, UniProt P08515 1-218 = GST)
[8] = molecular target: GST-TIAM1 PDZ domain fusion protein (T-lymphoma invasion and metastasis inducing protein 1 AA1001-1088); PDZ 1 … (UniProt P08515 1-218 = GST)
[9] = molecular target: T5, GST-KIAA0559 PDZ domain fusion protein (KIAA0559 AA766-870; PDZ1 of 1) (UniProt P08515 1-218 = GST)
T5 construct: also called K559

[10] = molecular target: T6, GST-MPP2 PDZ domain fusion protein (maguk p55 subfamily member 2 (DLG2) AA185-273; PDZ domain 1 of 1) (UniProt P08515 1-218 = GST)
T6 construct: also called MMP2

[11] = molecular target: GST-AF6 PDZ domain fusion protein (af-6 protein AA985-1077; PDZ domain 1 of 1) (UniProt P08515 1-218 = GST)
[12] = molecular target: GST-LIM PDZ domain fusion protein (Human LIM protein AA29-112; PDZ domain 1 of 1) (human, UniProt P08515 1-218 = GST)
[13] = molecular target: GST-prIL16 PDZ domain fusion protein (putative interleukin 16 precursor AA170-383; PDZ domains 1-2 of 2) (UniProt P08515 1-218 = GST)
[14] = molecular target: GST-DVL1 PDZ domain fusion protein (human dishevelled segment polarity protein homolog AA248-340); PDZ domain … (human, UniProt P08515 1-218 = GST)
[15] = molecular target: T7, GST-CBP PDZ domain fusion protein (Cytohesin binding protein HE AA85-175; PDZ domain 1 of 1) (UniProt P08515 1-218 = GST)
T7 construct: also called Prot

[16] = molecular target: T8, GST-RGS12 PDZ domain fusion protein (human regulator of G-protein signalling 12 AA35-103; PDZ domain 1 of 1) (human, UniProt P08515 1-218 = GST)
T8 construct: also called RSG12

[17] = molecular target: T9, GST-SYN1a PDZ domain fusion protein (alpha1-syntrophin AA96-189; PDZ domain 1 of 1) (UniProt P08515 1-218 = GST)
T9 construct: also called SYN 1 alpha; SYNTR 1 alpha

[18] = molecular target: T10, GST-TAX33 PDZ domain fusion protein (tax interaction protein 33 AA73-162; PDZ domain 1 of 1) (UniProt P08515 1-218 = GST)
T10 construct: also called TX33

[19] = molecular target: T11, GST-TAX43 PDZ domain fusion protein (human tax interaction protein 43 AA15-85; PDZ domain 1 of 1) (human, UniProt P08515 1-218 = GST)
T11 construct: also called TX 43

[20] = molecular target: T12, GST-TAX40 PDZ domain fusion protein (human tax interaction protein 40 AA35-137; PDZ domain 1 of 1) (human, UniProt P08515 1-218 = GST)
T12 construct: also called TX 40

[21] = molecular target: GST-MPP1 PDZ domain fusion protein (55 Kd erythrocyte membrane protein AA101-186; PDZ domain 1 of 1) (UniProt P08515 1-218 = GST)
[22] = molecular target: GST-PTN-4 PDZ domain fusion protein (protein-tyrosine phosphatase meg1 AA774-862; PDZ domain 1 of 1) (UniProt P08515 1-218 = GST)
[23] = molecular target: T13, GST-TAX2 PDZ domain fusion protein (human tax interaction protein 2 AA54-140; PDZ domain 1 of 1) (human, UniProt P08515 1-218 = GST)
T13 construct: also called TX 2

[24] = molecular target: GST-MINT3 PDZ domain fusion protein (human MINT3 AA11-52; PDZ domain 1 of 1) (human, UniProt P08515 1-218 = GST)
[25] = molecular target: T14, GST-KIAA0316 PDZ domain fusion protein (KIAA0316 AA197-284; PDZ domain 1 of 1) (UniProt P08515 1-218 = GST)
T14 construct: also called K316

Measured: binding result

T12 sequence (P08515 1-218, tags or fused parts left off): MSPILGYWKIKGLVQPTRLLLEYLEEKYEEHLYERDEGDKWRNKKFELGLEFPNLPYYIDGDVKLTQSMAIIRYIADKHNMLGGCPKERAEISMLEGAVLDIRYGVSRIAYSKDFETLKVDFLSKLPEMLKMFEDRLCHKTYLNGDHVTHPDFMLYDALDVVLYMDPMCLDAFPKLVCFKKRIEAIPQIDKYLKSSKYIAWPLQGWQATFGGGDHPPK
Chain of GST-MINT3 PDZ domain fusion protein (human MINT3 AA11-52; PDZ domain 1 of 1) (P08515 1-218, tags or fused parts left off): as above
T8 sequence (P08515 1-218, tags or fused parts left off): as above
Chain of GST-MPP1 PDZ domain fusion protein (55 Kd erythrocyte membrane protein AA101-186; PDZ domain 1 of 1) (P08515 1-218, tags or fused parts left off): as above
T6 sequence (P08515 1-218, tags or fused parts left off): as above
T9 sequence (P08515 1-218, tags or fused parts left off): as above
Chain of GST-AF6 PDZ domain fusion protein (af-6 protein AA985-1077; PDZ domain 1 of 1) (P08515 1-218, tags or fused parts left off): as above
Chain of GST-PSD95 PDZ domain fusion protein (human post-synaptic density protein 95 AA387-724; PDZ domains 1-3 of 3) (P08515 1-218, tags or fused parts left off): as above
T3 sequence (P08515 1-218, tags or fused parts left off): as above
Chain of GST-TIAM1 PDZ domain fusion protein (T-lymphoma invasion and metastasis inducing protein 1 AA1001-1088); PDZ 1 … (P08515 1-218, tags or fused parts left off): as above
T10 sequence (P08515 1-218, tags or fused parts left off): as above
T14 sequence (P08515 1-218, tags or fused parts left off): as above
Chain of GST-PTN-4 PDZ domain fusion protein (protein-tyrosine phosphatase meg1 AA774-862; PDZ domain 1 of 1) (P08515 1-218, tags or fused parts left off): as above
T11 sequence (P08515 1-218, tags or fused parts left off): as above
T5 sequence (P08515 1-218, tags or fused parts left off): as above
Chain of GST-DVL1 PDZ domain fusion protein (human dishevelled segment polarity protein homolog AA248-340); PDZ domain … (P08515 1-218, tags or fused parts left off): as above
Chain of GST-NOS1 PDZ domain fusion protein (human neuronal nitric oxide synthase; PDZ domain 1 of 1) (P08515 1-218, tags or fused parts left off): as above
T1 sequence (P08515 1-218, tags or fused parts left off): as above
T13 sequence (P08515 1-218, tags or fused parts left off): as above
T2 sequence (P08515 1-218, tags or fused parts left off): as above
Chain of GST-LIM PDZ domain fusion protein (Human LIM protein AA29-112; PDZ domain 1 of 1) (P08515 1-218, tags or fused parts left off): as above

Biotin-AWDDSARAAGGQGLHVTAL [LPAP C-terminal PL peptide AA30L, biotinylated]
no binding: all assays above

Biotin-LERTSSVSPSTAEPELSIVF [CC CKR-3 C-terminal PL peptide AA43L, biotinylated]
no binding: all assays above

Biotin-CAISGTSSDRGYGSPRYAEV [CLASP-4 C-terminal PL peptide AA3L-V, biotinylated]
not listed: [2] | [6] | [7] | [11]
no binding: all other assays above

Biotin-SMQPDNSSDSDYDLHGAQRL [CD5 C-terminal PL peptide AA49L, biotinylated]
no binding: all assays above

Biotin-GKGKSIGRAPEASLQDKEGA [CC CKR-2 C-terminal PL peptide AA42L, biotinylated]
no binding: all assays above

Biotin-TIYENLAPVTTFGKTIA [CD148 C-terminal PL peptide AA55L (ends KTIA), biotinylated]
no binding: all assays above
